Laboratory results taken from paper PMC10879016.

What was measured:
[1] = anti-Myc Western of HEK293T medium, IgG-normalised; details: glycan lost; control: MMRN1 WT-Myc
[2] = anti-Myc Western of medium, IgG-normalised; details: glycan lost; control: WT HEK293T cells

B1: multimerin-1 (MMRN1): T216A (protein)
parent chain: MKGARLFVLLSSLWSGGIGLNNSKHSWTIPEDGNSQKTMPSASVPPNKIQSLQILPTTRVMSAEIATTPEARTSEDSLLKSTLPPSETSAPAEGVRNQTLTSTEKAEGVVKLQNLTLPTNASIKFNPGAESVVLSNSTLKFLQSFARKSNEQATSLNTVGGTGGIGGVGGTGGVGNRAPRETYLSRGDSSSSQRTDYQKSNFETTRGKNWCAYVHTRLSPTVILDNQVTYVPGGKGPCGWTGGSCPQRSQKISNPVYRMQHKIVTSLDWRCCPGYSGPKCQLRAQEQQSLIHTNQAESHTAVGRGVAEQQQQQGCGDPEVMQKMTDQVNYQAMKLTLLQKKIDNISLTVNDVRNTYSSLEGKVSEDKSREFQSLLKGLKSKSINVLIRDIVREQFKIFQNDMQETVAQLFKTVSSLSEDLESTRQIIQKVNESVVSIAAQQKFVLVQENRPTLTDIVELRNHIVNVRQEMTLTCEKPIKELEVKQTHLEGALEQEHSRSILYYESLNKTLSKLKEVHEQLLSTEQVSDQKNAPAAESVSNNVTEYMSTLHENIKKQSLMMLQMFEDLHIQESKINNLTVSLEMEKESLRGECEDMLSKCRNDFKFQLKDTEENLHVLNQTLAEVLFPMDNKMDKMSEQLNDLTYDMEILQPLLEQGASLRQTMTYEQPKEAIVIRKKIENLTSAVNSLNFIIKELTKRHNLLRNEVQGRDDALERRINEYALEMEDGLNKTMTIINNAIDFIQDNYALKETLSTIKDNSEIHHKCTSDMETILTFIPQFHRLNDSIQTLVNDNQRYNFVLQVAKTLAGIPRDEKLNQSNFQKMYQMFNETTSQVRKYQQNMSHLEEKLLLTTKISKNFETRLQDIESKVTQTLIPYYISVKKGSVVTNERDQALQLQVLNSRFKALEAKSIHLSINFFSLNKTLHEVLTMCHNASTSVSELNATIPKWIKHSLPDIQLLQKGLTEFVEPIIQIKTQAALSNLTCCIDRSLPGSLANVVKSQKQVKSLPKKINALKKPTVNLTTVLIGRTQRNTDNIIYPEEYSSCSRHPCQNGGTCINGRTSFTCACRHPFTGDNCTIKLVEENALAPDFSKGSYRYAPMVAFFASHTYGMTIPGPILFNNLDVNYGASYTPRTGKFRIPYLGVYVFKYTIESFSAHISGFLVVDGIDKLAFESENINSEIHCDRVLTGDALLELNYGQEVWLRLAKGTIPAKFPPVTTFSGYLLYRT
expression_or_secretion [1]: decreases

B2: multimerin-1 (MMRN1): T1055A (protein)
parent chain: B1 parent chain
expression_or_secretion [1]: decreases

B3: multimerin-1 (MMRN1): POFUT2 KO (protein)
parent chain: B1 parent chain
expression_or_secretion [2]: no change

B4: multimerin-1 (MMRN1): POFUT1 KO (protein)
parent chain: B1 parent chain
expression_or_secretion [2]: abolishes
